Key:
JAK2 kinase domain (JH1) = assay: cell-based or functional assay
JAK3 kinase domain (JH1) = assay: cell-based or functional assay
TYK2 kinase domain (JH1) = assay: cell-based or functional assay
[1] = target: JAK1 kinase domain (JH1) (Homo sapiens (Human)) (UniProt P23458); assay: cell-based or functional assay
[2] = target: JAK1-Y1034 phosphopeptide with an alanine substitution at the +3 position (Homo sapiens); assay: ITC
[3] = target: JAK1 activation loop phosphopeptide (Tyr1034 phosphorylated) (Homo sapiens); assay: ITC

Chain of JAK1 kinase domain (JH1) (Homo sapiens (Human)) (P23458 854-1154 limits assumed): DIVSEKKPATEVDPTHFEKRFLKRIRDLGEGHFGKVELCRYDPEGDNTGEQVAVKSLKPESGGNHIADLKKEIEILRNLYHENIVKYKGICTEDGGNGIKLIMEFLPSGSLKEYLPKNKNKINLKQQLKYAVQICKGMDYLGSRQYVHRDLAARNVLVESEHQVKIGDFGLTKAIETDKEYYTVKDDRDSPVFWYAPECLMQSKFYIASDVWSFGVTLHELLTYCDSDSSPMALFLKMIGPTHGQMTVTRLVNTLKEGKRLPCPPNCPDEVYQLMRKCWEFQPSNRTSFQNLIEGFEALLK
Chain of human CIS lacking the N-terminal 34 residues (AN34), trimeric complex with elongin B and elongin C (Q9NSE2 35-258): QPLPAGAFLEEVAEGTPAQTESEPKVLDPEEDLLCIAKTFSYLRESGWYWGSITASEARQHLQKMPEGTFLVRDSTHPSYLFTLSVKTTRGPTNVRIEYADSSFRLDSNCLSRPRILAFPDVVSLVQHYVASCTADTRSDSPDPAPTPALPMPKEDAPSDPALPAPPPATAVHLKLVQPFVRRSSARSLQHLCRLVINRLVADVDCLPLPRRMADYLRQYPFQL
Chain of human CIS lacking the N-terminal 34 residues (AN34), trimeric complex with elongin B and elongin C (Q15370 whole entry): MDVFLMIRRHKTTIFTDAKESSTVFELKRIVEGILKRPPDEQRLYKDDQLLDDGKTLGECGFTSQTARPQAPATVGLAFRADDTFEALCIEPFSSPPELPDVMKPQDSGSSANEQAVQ
Chain of human CIS lacking the N-terminal 34 residues (AN34), trimeric complex with elongin B and elongin C (Q15369 17-112): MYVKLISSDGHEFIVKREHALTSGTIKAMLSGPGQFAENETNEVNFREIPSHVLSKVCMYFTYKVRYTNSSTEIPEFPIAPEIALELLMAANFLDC

hCIS-SH2-BC: recombinant trimeric complex of a human GST-CIS construct (hCIS-SH2) with Elongins B and C (from UniProt Q9NSE2 66-258; Q15370 1-118; Q15369 17-112)
kinase inhibition relative to inhibition of JAK1 (in vitro kinase assay with JH1 domains) (JAK2 kinase domain (JH1)): 20 fold
kinase inhibition relative to inhibition of JAK1 (in vitro kinase assay with JH1 domains) (JAK3 kinase domain (JH1)): 20 fold
kinase inhibition relative to inhibition of JAK1 (in vitro kinase assay with JH1 domains) (TYK2 kinase domain (JH1)): 20 fold
IC50, inhibition of JAK1 phosphorylation of a substrate peptide (in vitro kinase assay) [1]: 120 nM
efficiency of JAK1 JH1 kinase inhibition relative to SOCS1 [1]: 100 fold

human CIS lacking both the N-terminal region (residues 1-66) and the PEST motif (ANT/APEST), trimeric complex with elongin B and elongin C (from UniProt Q9NSE2 67-258; Q15370 1-118; Q15369 17-112)
fold reduction of binding against the wild-type JAK1-Y1034 phosphopeptide [2]: 4 fold
IC50, inhibition of the JAK1 kinase domain (JH1) in an in vitro kinase reaction [1]: 600 nM

human CIS lacking the N-terminal 34 residues (AN34), trimeric complex with elongin B and elongin C (from UniProt Q9NSE2 35-258; Q15370 1-118; Q15369 17-112)
Kd [3]: 2200 to 10000 nM

— patent US20220267447A1
